Numbered stars: 1 amine (or outer) side, 2 acyl side, 3 side chain; on linkers, the order of the positions; unused ones are H or OH. Bridge positions count the residues as written; N and C are the ends. Peptide text beside a SMILES is read from it. * marks the point of attachment. CH2CH2 = C(C[*:2])[*:1]; Propargyl = C#CC*
Tests used:
streptavidin [1] = target: T1, streptavidin (Streptomyces avidinii, UniProt P22629); experiment: in-solution inhibition (competitive binding) assay for streptavidin binding affinity; details: versus cyclo[S(OpgY)[…]]
T1 construct: purchased Sigma-Aldrich
Method: Then, a fixed amount of streptavidin-horseradish peroxidase conjugate is added to the plate in the presence of varying amount of the bicyclic or cyclic peptide.

Keap1 Kelch domain (KKD) = target: T2, Keap1 Kelch domain (KKD) (Homo sapiens, UniProt Q14145); experiment: direct binding assay with plate-immobilized Keap1 Kelch domain (KKD) and HRP-conjugated anti-FLAG antibody; details: linear version, O2beY substituted with OpgY
T2 construct: poly-His tag with TEV protease cleavable linker (N)
Excerpt: FIG. 46A-FIG. 46C depict the selection of macrocyclic peptide inhibitors of the Keap1/Nrf2 interaction using methods disclosed herein. […] KD values correspond to the FLAG-tagged CBD-fused peptide macrocycles. FIG. 46B depicts binding curves for selected macrocyclic peptides as determined using a direct binding assay with plate-immobilized KKD and HRP-conjugated anti-FLAG antibody for detection of the bound peptide.
FIG. 47A-FIG. 47B depicts the selection of Keap1 binding macrocyclic peptides from a naïve macrocyclic peptide phage display library. […] FIG. 47B depicts the binding curves binding curves for selected macrocyclic peptides as determined using a direct binding assay with plate-immobilized KKD and HRP-conjugated anti-FLAG antibody for detection of the bound peptide.
The macrocyclic peptide phage display system of FIG. 43 was further applied to discover macrocyclic peptides capable of targeting a biomedically relevant protein-protein interaction such as the interaction between the Kelch-like ECH-associated protein 1 (Keap1) and transcriptional regulator Nrf2. […] The purified FLAG-tagged cyclic peptides were then tested for their ability to bind the Keap1 Kelch domain (KKD) using an in vitro assay, in which peptide binding to plate-immobilized KKD is detected using a HRP-conjugated anti-FLAG antibody (FIG. 46B). […]

Keap1 Kelch Domain (KDD) = target: T3, Keap1 Kelch Domain (KDD) (Homo sapiens, UniProt Q14145); experiment: KD (nM)
T3 construct: poly-His tag with TEV protease cleavable linker (N)
Excerpt: Table printed on a drawing sheet, FIG. 47A
Head of the field: KD (nM)
The patent's description of the figure: FIG. 47A-FIG. 47B depicts the selection of Keap1 binding macrocyclic peptides from a naïve macrocyclic peptide phage display library. FIG. 47A depicts the naïve library of i/i+6-linked macrocyclic peptides (X=NNK; Y*=O2beY) and the sequences and binding affinity for selected macrocyclic Keap1-binding peptides isolated after panning the macrocyclic peptide display library against immobilized Keap1 Kelch Domain (KDD). FIG. 47B depicts the binding curves binding curves for selected macrocyclic peptides as determined using a direct binding assay with plate-immobilized KKD and HRP-conjugated anti-FLAG antibody for detection of the bound peptide.
First copying reader's note: Residue columns have no printed head; a drawn thioether linker joins Y* (first residue) and C (last residue), and the KD cells hold value ± error for binding to the Keap1 Kelch Domain (KKD).
Where the first naming reader finds the target: description_of_the_figure: isolated after panning the macrocyclic peptide display library against immobilized Keap1 Kelch Domain (KDD)

streptavidin [2] = target: T1, streptavidin; experiment: direct binding assay with plate-immobilized streptavidin and HRP-conjugated anti-FLAG antibody; details: CBD alone (tag control)
Excerpt: FIG. 45A-FIG. 45C depict the affinity selection of streptavidin binding peptide macrocycles using methods disclosed herein. […] KD values correspond to the corresponding FLAG-macrocycle-CBD constructs in purified form. FIG. 45B depicts binding curves for selected peptide macrocycle hits as determined using a direct binding assay with plate-immobilized streptavidin and HRP-conjugated anti-FLAG antibody for detection of the bound peptide. […] FIG. 45D depicts phage enrichment over the four rounds of affinity selection and amplification as determined via the phage titer assay.
Studies were performed to assess the functionality of the phage display-based strategy for functional selection of thioether-linked macrocyclic peptides (FIG. 43) that can bind to a target protein. […] To this end, three peptide sequences from the ‘-GD’ family and two from the ‘-FD’ family, respectively, were subcloned into a pET22 vector for expression of the corresponding macrocyclic peptides fused to a N-terminal FLAG tag and a C-terminal chitin binding domain (CBD) and poly-histidine tag to facilitate purification and quantification. […]
Binding Assays. […] Equilibrium dissociation constants (KD) were determined by fitting the dose-response curves to a 1:1 binding isotherm equation via nonlinear regression using SigmaPlot. Mean values and standard deviations were calculated from experiments performed in triplicate.

T1 sequence (P22629 25-183, species assumed): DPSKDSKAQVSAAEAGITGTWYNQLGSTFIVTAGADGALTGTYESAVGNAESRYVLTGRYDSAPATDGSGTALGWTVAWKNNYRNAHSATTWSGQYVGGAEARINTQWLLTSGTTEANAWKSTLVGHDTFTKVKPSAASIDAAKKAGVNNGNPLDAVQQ
T2 sequence (Q14145 321-609 limits assumed): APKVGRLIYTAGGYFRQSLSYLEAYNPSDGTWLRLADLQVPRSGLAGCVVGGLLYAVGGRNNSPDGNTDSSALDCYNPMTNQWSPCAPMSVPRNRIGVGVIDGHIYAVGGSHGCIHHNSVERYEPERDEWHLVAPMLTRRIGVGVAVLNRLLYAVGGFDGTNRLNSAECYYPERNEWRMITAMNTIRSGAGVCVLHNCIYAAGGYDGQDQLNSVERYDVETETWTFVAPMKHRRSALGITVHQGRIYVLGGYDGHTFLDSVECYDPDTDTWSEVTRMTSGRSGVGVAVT

CC(C)[C@@H]1NC(=O)[C@H](CC(N)=O)NC(=O)[C@H]([C@@H](C)O)NC(=O)[C@@H]2Cc3ccc(cc3)OCCSC[C@H](NC(=O)[C@H](Cc3ccccc3)NC(=O)[C@H](CCC(N)=O)NC(=O)[C@@H]3CCCN3C(=O)[C@H](Cc3c[nH]cn3)NC1=O)C(=O)N[C@@H](CC(N)=O)C(=O)N[C@@H](C)C(=O)N[C@@H](CS)C(=O)N2 [cStrep3(C)—Z8C(p-2beF)] (cyclo(ACYTNVHPQFCN); linker 3-11 via CH2CH2)
increase in streptavidin binding affinity as compared to the monocyclic counterpart (streptavidin [1]): > 2 fold

C#CCOc1ccc(C[C@H](N)C(=O)N[C@@H](CC(=O)O)C(=O)N[C@@H](CO)C(=O)N[C@@H](CCC(=O)O)C(=O)N[C@H](C(=O)NCC(=O)N[C@@H](CCC(=O)O)C(=O)N[C@@H](CS)C(=O)O)[C@@H](C)O)cc1 [linear version of KKD-m1] (H-Y(Propargyl)DSETGEC-OH; N-terminus and C-terminus assumed)
lower affinity for Keap1 relative to KKD-m1 (Keap1 Kelch domain (KKD)): five-fold lower affinity

Y* D A E T G E C (YDAETGEC; not fully specified; modified tyrosine Y*; KKD(6X)-m2) [SEQ ID NO: 251 | KKD(6X)-m2]
Kd (Keap1 Kelch Domain (KDD)): 40 ± 13 nM

Y* D I E T G E C (YDIETGEC; not fully specified; modified tyrosine Y*; KKD(6X)-m1) [SEQ ID NO: 250 | KKD(6X)-m1]
Kd (Keap1 Kelch Domain (KDD)): 43 ± 14 nM

B1: CBD: chitin binding domain tag alone (protein)
chain: MKIEEGKLTNPGVSAWQVNTAYTAGQLVTYNGKTYKCLQPHTSLAGWEPSNVPALWQLQNNGNNGLELRHG
binding to streptavidin (streptavidin [2]): no detectable binding

Reference: patent US12359192B2, “Methods and compositions for display of macrocyclic peptides” (University of Rochester, priority 2013, dated 2025)
